Results taken from PMC5268738 (2017).
Square brackets hold non-standard residues; d marks the D form. Ends that are not written are not given here. pT = C[C@@H](OP(=O)(O)O)[C@H](N)C(=O)O; pS = N[C@@H](COP(=O)(O)O)C(=O)O

T1: human Mad1^CTD (human, UniProt Q9Y6D9 597-718)
T1 chain: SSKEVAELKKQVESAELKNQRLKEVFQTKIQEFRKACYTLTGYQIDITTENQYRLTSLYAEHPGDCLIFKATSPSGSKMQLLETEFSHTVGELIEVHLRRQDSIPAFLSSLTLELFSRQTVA

B1: human Bub1 CM phospho-peptide pS459-pT461 (peptide)
peptide: CKVQP[pS]P[pT]VHTKEALGFIMNMFQA
B2: human Bub1 CM phospho-peptide pT461 (peptide)
peptide: CKVQPSP[pT]VHTKEALGFIMNMFQA

Biological target: T1, human Mad1^CTD
Assay: ITC

| Kd | Binder |
| --- | --- |
| 3.1 µM | B1 |
| 15.7 µM | B2 |
